Molecular target: T1, G5-pep2(299-319aa) 抗原肽 (human)
T1 peptide: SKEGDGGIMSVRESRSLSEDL
Experiment: indirect ELISA, peptide coated at 2 ug/ml, purified antibody in 2-fold dilutions from 1:200, logistic fit

- Ka: 1.5e+11 M⁻¹
- X0 (midpoint of the logistic fit, antibody dilution factor): 1.56e+06 dilution fold
B1: 抗HLA-G异构体分子HLA-G5及HLA-G6的单克隆抗体(9Y5G6) (antibody, V domains shown)
VH: VQLQESGGGLVQPGGSRKLSCAASGFTFRDFGMAWVRQVPGMGPEWVASISNLARIIDYADTVTGRFTISRENAKNTLYLEMNSLRSEDSAIYYCARVTTIVPDYWGQGTSLTVSS
VL: DIVITQDELSLPVSLGDHTSISCRSSQSLLHSNGHTYLHWYLQKPGQSPKLLIYKVSNRFSGVPDRFSGSGSGTDFTLKISRVEAEDLGVYFCSQSTHVPWTFGGGTKVEIKR
notes: only the CDRs are; also called 抗HLA-G单克隆抗体(9Y5G6)
